Literature values as cited in paper PMC6963778.

Molecular target: RNF4 (Homo sapiens) (UniProt P78317)

Kd: 0.18 µM
Substance: RNF4 (from UniProt P78317)
